# Data: PMC9335216 (Proceedings of the National Academy of Sciences of the …, 2022)
# Key:
# [1] = tested on: glutathione reductase (GR); assay: stopped-flow, NAD; assay type: biochemical; settings: read-out: apparent KM; 180 µM NAD(P)H, 10 nM enzyme, 50 to 250 µM HOSCN, 100 mM sodium phosphate pH 7.4, aerobic
# purified protein = substrate: O=S(=O)(O)CCNCl; assay: purified protein; settings: 100 µM NADH, 10 µM enzyme, 20 mM HEPES, 100 mM NaCl pH 7, anaerobic
Molecule,Km [1] [µM],Km (purified protein) [µM],kcat (purified protein) [s⁻¹]
"N#CSO [HOSCN, hypothiocyanous acid]",81,–,–
RclA (Escherichia coli K-12) (protein) MNKYQAVIIGFGKAGKTLAVTLAKAGWRVALIEQSNAMYGGTCINIGCIPTKTLVHDAQQHTDFVRAIQRKNEVVNFLRNKNFHNLADMPNIDVIDGQAEFINNHSLRVHRPEGNLEIHGEKIFINTGAQTVVPPIPGITTTPGVYDSTGLLNLKELPGHLGILGGGYIGVEFASMFANFGSKVTILEAASLFLPREDRDIADNIATILRDQGVDIILNAHVERISHHENQVQVHSEHAQLAVDALLIASGRQPATASLHPENAGIAVNERGAIVVDKRLHTTADNIWAMGDVTGGLQFTYISLDDYRIVRDELLGEGKRSTDDRKNVPYSVFMTPPLSRVGMTEEQARESGADIQVVTLPVAAIPRARVMNDTRGVLKAIVDNKTQRMLGASLLCVDSHEMINIVKMVMDAGLPYSILRDQIFTHPSMSESLNDLFSLVK,–,12700,33
